Experimental data: patent US20100111943A1 (MEDICAL COLLEGE OF GEORGIA RESEARCH INSTITUTE, published 2010)

Experiments:
Test in all cases: co-IP: anti-FLAG M2 immunoprecipitates immunoblotted with anti-CHIP
[1] = biological target: T1, FLAG (F)-tagged hsp90α (wild type) (UniProt P07900 1-732)
T1 construct: Expressed from a plasmid described in cited literature, or translated in vitro; also called F-hsp90α; F-hsp90; not shown: FLAG tag
Protocol: (§1) Following culture in the plates for 24 hours, cells were transfected by Lipofectamine Plus following the protocol provided by Invitrogen (Carlsbad, Calif.). Transfected cells were cultured in full-medium containing drugs dissolved in DMSO or vehicle for 24 hours. Cellular extracts were prepared by directly adding lysis buffer (25 mM Tris-phosphate, pH 7.8, 2 mM DTT, 2 mM 1,2-diaminocyclohexane-N′,N′,N′,N′-tetraacetic acid, 10% glycerol, 0.2% Triton X-100) to the cells on ice. For immuno-precipitations (IP), 2×10⁶ cells in 100 mm dishes were transfected and/or treated as described above. Cellular extracts were prepared and immunoprecipitation performed as described 24. For immunoblotting, cellular extracts or immunoprecipitates were separated on SDS-PAGE, transferred to a nitrocellulose membrane, probed with antibodies, and visualized with enhanced chemiluminescence, as described (Chen, Z., et al., Mol. Pharmacol., 69:1527-33 (2006)).
(§2) The mutants were also analyzed for their ability to bind ATP, as well as for binding to co-chaperones, client proteins and the biotinylated (B) GA (geldanamycin) (Kamal, A., et al., Nature., 425:407-10 (2003)). Precipitates from the mixture of cell lysates containing hsp90α and ATP-sepharose were analyzed with anti-F antibody.

[2] = biological target: T2, FLAG (F)-tagged hsp90α K100R mutant (UniProt P07900 1-732)
T2 construct: Made by site-directed mutagenesis, expressed by transfection; also called K/R mutant at K100; acetylation-deficient mutant; not shown: FLAG tag
Protocol: as §1, §2

[3] = biological target: T3, FLAG (F)-tagged hsp90α K292R mutant (UniProt P07900 1-732)
T3 construct: Made by site-directed mutagenesis, expressed by transfection; also called K/R mutant at K292; acetylation-deficient mutant; not shown: FLAG tag
Protocol: as §1, §2

[4] = biological target: T4, FLAG (F)-tagged hsp90α K327R mutant (UniProt P07900 1-732)
T4 construct: Made by site-directed mutagenesis, expressed by transfection; also called K/R mutant at K327; acetylation-deficient mutant; not shown: FLAG tag
Protocol: as §1, §2

[5] = biological target: T5, FLAG (F)-tagged hsp90α K478R mutant (UniProt P07900 1-732)
T5 construct: Made by site-directed mutagenesis, expressed by transfection; also called K/R mutant at K478; acetylation-deficient mutant; not shown: FLAG tag
Protocol: as §1, §2

[6] = biological target: T6, FLAG (F)-tagged hsp90α K546R mutant (UniProt P07900 1-732)
T6 construct: Made by site-directed mutagenesis, expressed by transfection; also called K/R mutant at K546; acetylation-deficient mutant; not shown: FLAG tag
Protocol: as §1, §2

[7] = biological target: T7, FLAG (F)-tagged hsp90α K558R mutant (UniProt P07900 1-732)
T7 construct: Made by site-directed mutagenesis, expressed by transfection; also called K/R mutant at K558; acetylation-deficient mutant; not shown: FLAG tag
Protocol: as §1, §2

[8] = biological target: T8, FLAG (F)-tagged hsp90α K292Q mutant (UniProt P07900 1-732)
T8 construct: Made by site-directed mutagenesis, expressed by transfection; also called K/Q mutant at K292; acetylation-mimetic mutant; not shown: FLAG tag
Protocol: as §1, §2

[9] = biological target: T9, FLAG (F)-tagged hsp90α K69R mutant (UniProt P07900 1-732)
T9 construct: Made by site-directed mutagenesis, expressed by transfection; also called K/R mutant at K69; acetylation-deficient mutant; not shown: FLAG tag
Protocol: as §1, §2

binding result [1]: binds
binding result [2]: binds
binding result [3]: binds
binding result [4]: binds
binding result [5]: binds
binding result [6]: binds
binding result [7]: binds
binding result [8]: binds
binding result [9]: binds
B1: CHIP (other, UniProt Q9UNE7 1-303, looked up)
chain: MKGKEEKEGGARLGAGGGSPEKSPSAQELKEQGNRLFVGRKYPEAAACYGRAITRNPLVAVYYTNRALCYLKMQQHEQALADCRRALELDGQSVKAHFFLGQCQLEMESYDEAIANLQRAYSLAKEQRLNFGDDIPSALRIAKKKRWNSIEERRIHQESELHSYLSRLIAAERERELEECQRNHEGDEDDSHVRAQQACIEAKHDKYMADMDELFSQVDEKRKKRDIPDYLCGKISFELMREPCITPSGITYDRKDIEEHLQRVGHFDPVTRSPLTQEQLIPNLAMKEVIDAFISENGWVEDY
notes: Endogenous protein co-immunoprecipitated from cell lysates and detected with anti-CHIP
